“Also recorded” adds a separate entry of the source.
B1: CD8SP-DLL3-hSC16-13-(vL-vH)-Myc-BBz-T2A-PAC(052516-D07)[SEQ ID NO: 1584] (protein)
chain: MALPVTALLLPLALLLHAARPDIQMTQSPSSLSASVGDRVTITCSASSSVSYMYWYQQKPGKAPKLLIYLTSNLASGVPSRFSGSGSGTDFTLTISSLQPEDFATYYCQQWRSNPFTFGQGTKLEIKRGGGGSGGGGSGGGGSQITLKESGPTLVKPTQTLTLTCTFSGFSLSTSGMGVGWIRQPPGKALEWLAHIWWDDVKRYSPSLKSRLTITKDTSKNQVVLTMTNMDPVDTATYYCARIVSFDNDVVSAMDYWGQGTLVTVSSTREQKLISEEDLAKPTTTPAPRPPTPAPTIASQPLSLRPEACRPAAGGAVHTRGLDFACDIYIWAPLAGTCGVLLLSLVITLYCKRGRKKLLYIFKQPFMRPVQTTQEEDGCSCRFPEEEEGGCELRVKFSRSADAPAYQQGQNQLYNELNLGRREEYDVLDKRRGRDPEMGGKPRRKNPQEGLYNELQKDKMAEAYSEIGMKGERRRGKGHDGLYQGLSTATKDTYDALHMQALPPRSSGSGEGRGSLLTCGDVEENPGPHMTEYKPTVRLATRDDVPRAVRTLAAAFADYPATRHTVDPDRHIERVTELQELFLTRVGLDIGKVWVADDGAAVAVWTTPESVEAGAVFAEIGPRMAELSGSRLAAQQQMEGLLAPHRPKEPAWFLATVGVSPDHQGKGLGSAVVLPGVEAAERAGVPAFLETSAPRNLPFYERLGFTVTADVEVPEGPRTWCMTRKPGA
modifications: listed as DNA
B2: CD8SP-CD324-hSC10-17-(vL-vH)-Myc-BBz-T2A-PAC(052516-A07)[SEQ ID NO: 1555] (protein)
chain: MALPVTALLLPLALLLHAARPDVVMTQSPLSLPVTLGQPASISCRSSQSIVHSDGNTYLEWYQQRPGQSPRRLIYKVSNRFSGVPDRFSGSGSGTDFTLKISRVEAEDVGVYYCFQGSHAPWTFGGGTKVEIKGGGGSGGGGSGGGGSEVQLVESGGGLVQPGGSLRLSCAASGFTFSSYGMHWVRQAPGKGLEWVAYITTRSSTIYYADSVKGRFTISRDNAKNSLYLQMNSLRAEDTAVYYCTREPLTGYYAMDYWGQGTSVTVSSTREQKLISEEDLAKPTTTPAPRPPTPAPTIASQPLSLRPEACRPAAGGAVHTRGLDFACDIYIWAPLAGTCGVLLLSLVITLYCKRGRKKLLYIFKQPFMRPVQTTQEEDGCSCRFPEEEEGGCELRVKFSRSADAPAYQQGQNQLYNELNLGRREEYDVLDKRRGRDPEMGGKPRRKNPQEGLYNELQKDKMAEAYSEIGMKGERRRGKGHDGLYQGLSTATKDTYDALHMQALPPRSSGSGEGRGSLLTCGDVEENPGPHMTEYKPTVRLATRDDVPRAVRTLAAAFADYPATRHTVDPDRHIERVTELQELFLTRVGLDIGKVWVADDGAAVAVWTTPESVEAGAVFAEIGPRMAELSGSRLAAQQQMEGLLAPHRPKEPAWFLATVGVSPDHQGKGLGSAVVLPGVEAAERAGVPAFLETSAPRNLPFYERLGFTVTADVEVPEGPRTWCMTRKPGA
modifications: listed as DNA

Tested on: target cells expressing their respective target antigen
Assay: Jurkat-NFAT-GFP assay, co-culture with target cells expressing the respective target antigen (Table 28)
Conditions: Jurkat-NFAT-GFP cells expressing the CAR; cell line(s) giving greater % GFP positive cells than parental

| Molecule | Positive Cell Line on co-culture assay |
| --- | --- |
| B1 | LAN5, SKMEL31,; also recorded: SKMEL317 |
| B2 | MDAMB-231 |

From patent US20240166755A1, “CHIMERIC ANTIGEN RECEPTORS TARGETING CANCER” (University of Southern California, priority 2016, published 2024)
